Laboratory results reported in the nanobody polyreactivity screen of Harvey et al. (2022).

Test: yeast display, Sf9 membrane polyspecificity reagent, FACS + sequencing; frameworks hold sequencing errors
In short: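 In a synthetic yeast display library (Saccharomyces cerevisiae BJ5465), nanobody expression was induced with galactose for 36–48 hours. FACS gates were set low and high (top ~1%) using anti-HA fluorescence for expression and streptavidin fluorescence for binding of the Sf9 membrane reagent. Each polyreactivity label is drawn from the gate of origin.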

Row | Sequence | polyreactivity (PSR sort gate)
1 | QVQLVESGGGLVQAGGSLRLSCAASAYAMGWYRQAPGKERELVAAITVSGGSTHYADSVKGRFTISRDNAKNTVYLQMNSLKPEDTAVYYCNARYDVWYYYWGQGTQVTVSS | low polyreactivity
2 | QVQLVESGGGLVQAGGSLRLSCAASGAIFFVNDMGWYRQAPGKERELVAAITYSSGGTYYADSVKGRFTISRDNAKNTVYLQMNSLKPEDTAVYYCAVDFFLSYYSDMDYWGQGTQVTVSS | low polyreactivity
3 | QVQLVESGGGLVQAGGSLRLSCAASGAIFRYYAMGWYRPAPGKEREFVAAIRGSGGSPYYADSVKGRFTISRDNAKNTVYIQMISLKPEDTAVYYCAARKYSDRQVWYCYWGHGTQVTVSS | high polyreactivity
4 | QVQLVESGGGLVQAGGSLRLSCAASGATFRIDAMGWYREAPGKERELVAAIARGGTSTYYADSVKGRFTISRDNAKNTVNLQMNSLKPEDTAVYYCAKRDQDRTFPNGYWGQGTKVTVSS | high polyreactivity
5 | QVQLVESGGGLVQAGGSLRLSCAASGATFSYYAMGWYRQAPGKERELVAAISYSGGSTYYADSVKGRFTISRDNAKNTVYLQMNSLKPEDTAVYYCNARDPYYGDPSSLPDTRSRSDYWGQGTQVTVSS | low polyreactivity
6 | QVQLVESGGGLVQAGGSLRLSCAASGATFYLNDMGWYREAPGKERELVAAIDWSGGSTYYADSVKGRFTISRDNAKNTVYLQMNSLKPEDTAVYYCAARLVYEWRRLDYFIAWDYCGQGTQVTVSS | low polyreactivity
7 | QVQLVESGGGLVQAGGSLRLSCAASGCIFRYYAMGWYRQAPGKERELVAAISWGGGSTYYADSVKGRCTISRDNAKNTVYLQINSLKPEDTAVYYCNTYTYAWSRSKRGYWGQGTQVTVSS | high polyreactivity
8 | QVQLVESGGGLVQAGGSLRLSCAASGCIFSDSTMGWYRQAPGKERELVAAISGIGGSTYYADSVKGRFTISRDNAKNTVYLQMNSLKPEDTAVYYCAADDYYYPYVSHDYWGQGTQVTVSS | low polyreactivity
9 | QVQLVESGGGLVQAGGSLRLSCAASGCIFYPYAMGWYRQAPGKERELVAAITYSGGSTYADSVKGRFTISRDNAKNTVYLQMNSLKPEDTAVYYCNAKFYFYGGTYIVKYDYWGQGTQVTVSS | high polyreactivity
10 | QVQLVESGGGLVQAGGSLRLSCAASGCTSTSNAMGWYRQAPGKERELVALISSGGSTYYAVSVKGRFTISRDNAKNTVYLQMNSLKQEDTAVYYCAARRGTGSYSYRYPYGYDYWGQGTQVTVSS | low polyreactivity
11 | QVQLVESGGGLVQAGGSLRLSCAASGFAFSYYAMGWYRQAPGKEREFVASIDWSGGSTYYADSVKGRFTISRDNAKNTVYLQMNSLKAEDTAVYYCAAELDYFPGYDYWGQGTQVTVSS | low polyreactivity
12 | QVQLVESGGGLVQAGGSLRLSCAASGFICGYYAMGWYRQAPGKERELVADISRGGNTNYAESVKGRFTISRDNAKNSVYLQMNSLKPEDTAVYYCARYRRGKMDYWGQGTQVTVSS | high polyreactivity
13 | QVQLVESGGGLVQAGGSLRLSCAASGFIFAANAMGRYRQAPGKEREMVAAISESGGSTYYADSVKGRFTISRDNAKNTVYLQLNSLKPEDTAVYYCNADIVWSPVLGEYYYWGQGTQVTVSS | high polyreactivity
14 | QVQLVESGGGLVQAGGSLRLSCAASGFIFAAYAMGWYRQAPGKERELVAAITWDGGSTYYADSVKGSFTISRDNAKNTVYLQMNSLKPEDTAVYYCAARRRHGYDYWGQGTQVTVSS | high polyreactivity
15 | QVQLVESGGGLVQAGGSLRLSCAASGFIFAFYARGWYRQAPGKERELVASISRRSGSTYYADSVKGRFTISRDNAKNNVYLQMNSLKPEDTAVYYCSADRPPWETYGYDYWGQGTQVTVSS | low polyreactivity
16 | QVQLVESGGGLVQAGGSLRLSCAASGFIFAGYVMGWSRQAPGKERELVAAISSGGRTYYADSVKGRFTISRDNAKNTVYLQMNSLKPEDTAVYYCAAARWQVRATEGNYWGQGTQVTVSS | high polyreactivity
17 | QVQLVESGGGLVQAGGSLRLSCAASGFIFANNAMGWYRQAPGKERELVAAITSRGASTYYADSVKGRFTISRDNAKNTVYLQMNSLKPEDTAVYYCAKATYHYRRYYWGQGTQVTVSS | high polyreactivity
18 | QVQLVESGGGLVQAGGSLRLSCAASGFIFANNAMVWYRQAPGKERELVAVISQRGGRTYYADSVKGRFTISRDNAKNTVYLQMNSLKPADTAVYYCAASYSIAYVSPRNWHDYWGQGTQVTVSS | low polyreactivity
19 | QVQLVESGGGLVQAGGSLRLSCAASGFIFANYAMGWYRQAPGKERELVAVISQRGGRTYYADSVKGRFTISRDNAKNTVYLQMNSLKPEDTAVYYCNAVTGEWGQGTQVTVSS | low polyreactivity
20 | QVQLVESGGGLVQAGGSLRLSCAASGFIFARYAMGWNRQAPGKERELVAAISTSGGSTYYADSVKGRFTISRDNAKNTVYLQMNSLNPEDTAVYYCNKLRLSRLVHPSGYYWGQGTQVTVSS | high polyreactivity
21 | QVQLVESGGGLVQAGGSLRLSCAASGFIFASYAMGWYRQAPGTERELVAAISWRGGSTYYADSVKGRFTISRDNAKNTVYLQMNSLKPEDTAVYYCNAYGYDGTGRGYDTLDYWGQGTQVTVSS | low polyreactivity
22 | QVQLVESGGGLVQAGGSLRLSCAASGFIFAWYAMGWYRQAAGKERQLVATISSSGARTYYADSVKGRFTISRDNAKITVYLQMNSLKPEDTAVYYCAFGSVGRLKFYYWGQGTQVTVSS | high polyreactivity

Row | Sequence | polyreactivity (PSR sort gate)
23 | QVQLVESGGGLVQAGGSLRLSCAASGFIFAWYAMGWYRQAPGKERELVAAIDYSDGTTYYADSVKGRFTISRDNAKNTVYLQMNSLKPEDTAVYYCAAYNEFVYEDDYWGQGTQVTVSA | low polyreactivity
24 | QVQLVESGGGLVQAGGSLRLSCAASGFIFAYNAMGWYRQAPGKERELVAAISSRGSRTYYADSVKGRFTISRDKAKNTVYLQMNSLKPEDTAVYYCAARYSRGGFGYWGQGTQVTVSS | high polyreactivity
25 | QVQLVESGGGLVQAGGSLRLSCAASGFIFAYNAMGWYRQAPGKERELVAAISWSGGSTYYADSVKGRFTISRDNAKNTVFLQMNSLLPEDTAVYYCAARYRRNKYYYWGQGTQVTVSS | high polyreactivity
26 | QVQLVESGGGLVQAGGSLRLSCAASGFIFAYNAMGWYRQAPGKERELVAAISWSGGSTYYADSVKGRFTISRDNAKNTVYLQLNSLKPEDTAVYYCNKYIRYPFKRYGYWGQGTQVTVSS | high polyreactivity
27 | QVQLVESGGGLVQAGGSLRLSCAASGFIFAYYAMGWYRQAPGKERELVAAITNSGGSTYYADSVKGRFTISRDNAKNTVYLQMNSLKPEDTAVYYCAAVIRPRYYQVRPRYDYWGQGTQVTVSS | low polyreactivity
28 | QVQLVESGGGLVQAGGSLRLSCAASGFIFAYYAMGWYRQAPGKERELVAAITSSGGSTYYADSVKGRFTISRDNAKHTVYLQMNSLKPEDTAVYYCNAVPRHYKGYYWGQGTQVTVSS | high polyreactivity
29 | QVQLVESGGGLVQAGGSLRLSCAASGFIFCINAMGWYRQAPGKERELVAAISRSGGRTYYADSVKGRFTISRDNAKNTVYLQMNSLKPEDTAVYYCAADKASYTNYDGDYWGQGTQVTVSS | high polyreactivity
30 | QVQLVESGGGLVQAGGSLRLSCAASGFIFDAYAMGWYRQAPGKERELVAGISIGGRTNYADSVKGRFTISRDNAKNTVYLQMNSLKPEDTAVYYCAARNYRYYYGSYYRGPITNYEYWGQGTQVTVSS | low polyreactivity
31 | QVQLVESGGGLVQAGGSLRLSCAASGFIFDDNAMGWSRQAPGKDWELVAASTSGGGSTYYADSVKGRFTISRDNAKNTVYLQMTSLKPEDTAVYYCYAVPSQPDEFDYWGQGTQATVSS | low polyreactivity
32 | QVQLVESGGGLVQAGGSLRLSCAASGFIFDDNAMGWYRQAPGKEREVVAAITSGGGSTYYADSVKGRFTISRDNAKNTVYLQMNSLKPEDTAVYYCNAVPSQHDEFDYWGQGTQVTVSS | low polyreactivity
33 | QVQLVESGGGLVQAGGSLRLSCAASGFIFDEYAMGWYRQAPGKERELVAAISWSGSRTYYADSVKGRFTISRDNAKNTVYLQMNRLKPEDTSVYYCAKVTGVVAGRRNYWGQGTQVTVSS | low polyreactivity
34 | QVQLVESGGGLVQAGGSLRLSCAASGFIFDGNAMGWYRQAPGKERELLAAISWDGGTYYADSVKGRFTISRDNAKNTVYLQMNSLKPEDTAVYYCNKPYGAETAHREFDYWGQGTQVTVSS | low polyreactivity
35 | QVQLVESGGGLVQAGGSLRLSCAASGFIFDGYAMGWYRPAPGKERELVAAIDSGGDRTYYADSVKGRFTISRDNAKNTVYLQMNSLKPEDTAVYYCAADSSDPTGYDYWGQGTQVTVSS | low polyreactivity
36 | QVQLVESGGGLVQAGGSLRLSCAASGFIFDIYAMGGYRPAPGKERELVAAISSGGSTNYADSVKGRFTISRDNAKNTVYLQMNSLKPEDTAVYYCAADRSDLAEEGYAGYDYWGQGTQVTVSS | low polyreactivity
37 | QVQLVESGGGLVQAGGSLRLSCAASGFIFDKYAMGWYRQAPGKERELVATITSGGSTYYADSVKGRFTISRDNAKNTVYLQMNSLKPEDTAVYYCAALDYGYRWYRYYYWGQGTQVTVSS | high polyreactivity
38 | QVQLVESGGGLVQAGGSLRLSCAASGFIFDKYVMGWYRQAPGKERELVAAISSGGSTYYADSVKGRFTISRDNAKNTVYLQMNSLKPEDTAVYYCNAGGFWPWVYGYDSWGQGTQVTVSS | high polyreactivity
39 | QVQLVESGGGLVQAGGSLRLSCAASGFIFDRNTMGWYRQAPGKERELVAAISRSGGSTYYADSVKGRFTISRDNAKNTVYLQMNSLKPEDTAVYYCAALYYYRNRSYDYWGQGTQVTVSS | high polyreactivity
40 | QVQLVESGGGLVQAGGSLRLSCAASGFIFDRYAMGWYRQAPGKERELVAAIDTASSTNYADSVKGRFTISRDNAKNTVYLQMNSLKPEDTGVYYCNASGYYYVIYWKVSNYNYWGQGTQVTVSS | low polyreactivity
41 | QVQLVESGGGLVQAGGSLRLSCAASGFIFDSNVMGWYRQAPGKERELVATITNRGGRTYYADSVKGRFTISRDNAKNTVYLQMNSLKPEDTAVYYCNRRWIWTRDRGGYWGQGTQVTVSS | low polyreactivity
42 | QVQLVESGGGLVQAGGSLRLSCAASGFIFDTYAMGWYRQAPGKERELVAAISYRGGSTYYADSVKGRFTISRDNAKNTVYLQMNSLKPEDTAVYYCNAYWRYSYFGRDYWGQGTQVTVSS | low polyreactivity
43 | QVQLVESGGGLVQAGGSLRLSCAASGFIFDVNAMGWYRQAPGKERELVAAISRSGSSTYYADSVKGRFTISRDNAKNTVYFQMNSLKPEDTAVYYCAAEYYRNFYCSRGYWGQGTQVTVSS | high polyreactivity
